US20230051701A1 (Bristol-Myers Squibb, published 2023)
Where “and” joins values, the source holds several entries; their conditions need not be identical. Identical values can stand only once.

T1: human CD73 on cells (Calu6, NCI-H292, SK-MEL-24, human tumor cell lines, human B and T cells) (human, UniProt P21589 27-549)
T1 sequence: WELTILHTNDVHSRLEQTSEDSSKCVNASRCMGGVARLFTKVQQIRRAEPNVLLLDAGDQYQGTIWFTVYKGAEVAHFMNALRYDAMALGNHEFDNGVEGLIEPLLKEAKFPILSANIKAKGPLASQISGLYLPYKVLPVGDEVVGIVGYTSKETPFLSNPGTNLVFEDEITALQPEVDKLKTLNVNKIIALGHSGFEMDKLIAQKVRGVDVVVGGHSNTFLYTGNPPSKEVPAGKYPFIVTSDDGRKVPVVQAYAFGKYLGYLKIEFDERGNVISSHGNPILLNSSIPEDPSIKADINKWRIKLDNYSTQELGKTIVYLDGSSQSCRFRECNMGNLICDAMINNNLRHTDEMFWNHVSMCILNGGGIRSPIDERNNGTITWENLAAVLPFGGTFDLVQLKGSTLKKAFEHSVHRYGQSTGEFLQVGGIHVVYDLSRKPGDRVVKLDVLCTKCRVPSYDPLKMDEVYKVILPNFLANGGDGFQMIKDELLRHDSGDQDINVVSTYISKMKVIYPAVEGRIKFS

T2: N-terminal domain of hCD73 (residues 26-336 of human CD73), His-tagged (human, UniProt P21589 26-336)
T2 construct: also called N-hCD73; N-hCD73-his
T2 sequence: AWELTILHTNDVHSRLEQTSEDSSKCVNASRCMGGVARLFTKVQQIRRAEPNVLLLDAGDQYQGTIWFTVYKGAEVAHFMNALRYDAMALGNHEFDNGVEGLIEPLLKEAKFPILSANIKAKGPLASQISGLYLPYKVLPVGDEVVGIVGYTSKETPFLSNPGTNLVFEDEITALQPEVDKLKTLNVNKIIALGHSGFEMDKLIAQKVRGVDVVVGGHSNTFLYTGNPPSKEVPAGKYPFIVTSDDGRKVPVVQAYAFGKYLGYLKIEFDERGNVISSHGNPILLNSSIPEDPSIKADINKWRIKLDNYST


What follows are binders tested against T1, human CD73 on cells (Calu6, NCI-H292, …) (assay: cell-based or functional assay).

CD73 Inhibition EC50(nM), cAMP assay, Calu6	CD73 Inhibition S:B, cAMP assay, Calu6	Binder
0.44 nM	42	CD73.4-IgG2.5G1-KH (antibody) heavy: QVQLVESGGGVVQPGRSLRLSCAASGFTFSNYGMHWVRQAPGKGLEWVAVILYDGSNKYYPDSVKGRFTISRDNSKNTLYLQMNSLRAEDTAVYYCARGGSSWYPDSFDIWGQGTMVTVSSASTKGPSVFPLAPSSRSTSESTAALGCLVKDYFPEPVTVSWNSGALTSGVHTFPAVLQSSGLYSLSSVVTVPSSNFGTQTYTCNVDHKPSNTKVDKTVERKCCVECPPCPAPPVAGPSVFLFPPKPKDTLMISRTPEVTCVVVDVSHEDPEVKFNWYVDGVEVHNAKTKPREEQYNSTYRVVSVLTVLHQDWLNGKEYKCKVSNKALPAPIEKTISKAKGQPREPQVYTLPPSREEMTKNQVSLTCLVKGFYPSDIAVEWESNGQPENNYKTTPPVLDSDGSFFLYSKLTVDKSRWQQGNVFSCSVMHEALHNHYTQKSLSLSPGK light: not shown
2.17 nM	51	CD73.4-IgG2.5 (antibody) heavy: QVQLVESGGGVVQPGRSLRLSCAASGFTFSNYGMHWVRQAPGKGLEWVAVILYDGSNKYYPDSVKGRFTISRDNSKNTLYLQMNSLRAEDTAVYYCARGGSSWYPDSFDIWGQGTMVTVSSASTKGPSVFPLAPSSRSTSESTAALGCLVKDYFPEPVTVSWNSGALTSGVHTFPAVLQSSGLYSLSSVVTVPSSNFGTQTYTCNVDHKPSNTKVDKTVERKCCVECPPCPAPPVAGPSVFLFPPKPKDTLMISRTPEVTCVVVDVSHEDPEVQFNWYVDGVEVHNAKTKPREEQFNSTFRVVSVLTVVHQDWLNGKEYKCKVSNKGLPAPIEKTISKTKGQPREPQVYTLPPSREEMTKNQVSLTCLVKGFYPSDIAVEWESNGQPENNYKTTPPMLDSDGSFFLYSKLTVDKSRWQQGNVFSCSVMHEALHNHYTQKSLSLSPGK light: not shown
1.7 nM	52	CD73.4-IgG2.3G1-KH (antibody) heavy: QVQLVESGGGVVQPGRSLRLSCAASGFTFSNYGMHWVRQAPGKGLEWVAVILYDGSNKYYPDSVKGRFTISRDNSKNTLYLQMNSLRAEDTAVYYCARGGSSWYPDSFDIWGQGTMVTVSSASTKGPSVFPLAPCSRSTSESTAALGCLVKDYFPEPVTVSWNSGALTSGVHTFPAVLQSSGLYSLSSVVTVPSSNFGTQTYTCNVDHKPSNTKVDKTVERKSCVECPPCPAPPVAGPSVFLFPPKPKDTLMISRTPEVTCVVVDVSHEDPEVKFNWYVDGVEVHNAKTKPREEQYNSTYRVVSVLTVLHQDWLNGKEYKCKVSNKALPAPIEKTISKAKGQPREPQVYTLPPSREEMTKNQVSLTCLVKGFYPSDIAVEWESNGQPENNYKTTPPVLDSDGSFFLYSKLTVDKSRWQQGNVFSCSVMHEALHNHYTQKSLSLSPGK light: not shown
0.87 nM	45	CD73.4-IgG2.5G1.1f-KH (antibody) heavy: QVQLVESGGGVVQPGRSLRLSCAASGFTFSNYGMHWVRQAPGKGLEWVAVILYDGSNKYYPDSVKGRFTISRDNSKNTLYLQMNSLRAEDTAVYYCARGGSSWYPDSFDIWGQGTMVTVSSASTKGPSVFPLAPSSRSTSESTAALGCLVKDYFPEPVTVSWNSGALTSGVHTFPAVLQSSGLYSLSSVVTVPSSNFGTQTYTCNVDHKPSNTKVDKTVERKCCVECPPCPAPPVAGPSVFLFPPKPKDTLMISRTPEVTCVVVDVSHEDPEVKFNWYVDGVEVHNAKTKPREEQYNSTYRVVSVLTVLHQDWLNGKEYKCKVSNKALPSSIEKTISKAKGQPREPQVYTLPPSREEMTKNQVSLTCLVKGFYPSDIAVEWESNGQPENNYKTTPPVLDSDGSFFLYSKLTVDKSRWQQGNVFSCSVMHEALHNHYTQKSLSLSPGK light: not shown
	33	CD73.4-IgG2.3-plusTHT (antibody) heavy: QVQLVESGGGVVQPGRSLRLSCAASGFTFSNYGMHWVRQAPGKGLEWVAVILYDGSNKYYPDSVKGRFTISRDNSKNTLYLQMNSLRAEDTAVYYCARGGSSWYPDSFDIWGQGTMVTVSSASTKGPSVFPLAPCSRSTSESTAALGCLVKDYFPEPVTVSWNSGALTSGVHTFPAVLQSSGLYSLSSVVTVPSSNFGTQTYTCNVDHKPSNTKVDKTVERKSCVETHTCPPCPAPPVAGPSVFLFPPKPKDTLMISRTPEVTCVVVDVSHEDPEVQFNWYVDGVEVHNAKTKPREEQFNSTFRVVSVLTVVHQDWLNGKEYKCKVSNKGLPAPIEKTISKTKGQPREPQVYTLPPSREEMTKNQVSLTCLVKGFYPSDIAVEWESNGQPENNYKTTPPMLDSDGSFFLYSKLTVDKSRWQQGNVFSCSVMHEALHNHYTQKSLSLSPGK light: not shown
1.26 nM		CD73.4-IgG2.3-plusGGG (antibody) heavy: QVQLVESGGGVVQPGRSLRLSCAASGFTFSNYGMHWVRQAPGKGLEWVAVILYDGSNKYYPDSVKGRFTISRDNSKNTLYLQMNSLRAEDTAVYYCARGGSSWYPDSFDIWGQGTMVTVSSASTKGPSVFPLAPCSRSTSESTAALGCLVKDYFPEPVTVSWNSGALTSGVHTFPAVLQSSGLYSLSSVVTVPSSNFGTQTYTCNVDHKPSNTKVDKTVERKSCVEGGGCPPCPAPPVAGPSVFLFPPKPKDTLMISRTPEVTCVVVDVSHEDPEVQFNWYVDGVEVHNAKTKPREEQFNSTFRVVSVLTVVHQDWLNGKEYKCKVSNKGLPAPIEKTISKTKGQPREPQVYTLPPSREEMTKNQVSLTCLVKGFYPSDIAVEWESNGQPENNYKTTPPMLDSDGSFFLYSKLTVDKSRWQQGNVFSCSVMHEALHNHYTQKSLSLSPGK light: not shown
0.9 nM	44	CD73.4-IgG2.5-plusTHT (antibody) heavy: QVQLVESGGGVVQPGRSLRLSCAASGFTFSNYGMHWVRQAPGKGLEWVAVILYDGSNKYYPDSVKGRFTISRDNSKNTLYLQMNSLRAEDTAVYYCARGGSSWYPDSFDIWGQGTMVTVSSASTKGPSVFPLAPSSRSTSESTAALGCLVKDYFPEPVTVSWNSGALTSGVHTFPAVLQSSGLYSLSSVVTVPSSNFGTQTYTCNVDHKPSNTKVDKTVERKCCVETHTCPPCPAPPVAGPSVFLFPPKPKDTLMISRTPEVTCVVVDVSHEDPEVQFNWYVDGVEVHNAKTKPREEQFNSTFRVVSVLTVVHQDWLNGKEYKCKVSNKGLPAPIEKTISKTKGQPREPQVYTLPPSREEMTKNQVSLTCLVKGFYPSDIAVEWESNGQPENNYKTTPPMLDSDGSFFLYSKLTVDKSRWQQGNVFSCSVMHEALHNHYTQKSLSLSPGK light: not shown

Each binder was assayed against T2, N-terminal domain of hCD73 (residues …) (assay: SPR, mAb captured on protein A).
Experimental: For these experiments, protein A (Pierce) was immobilized to a density of 3000 — 4000 RU on flow cells 1-4 of a CM5 sensor chip (GE Healthcare) using standard ethyl(dimethylaminopropyl) carbodiimide (EDC)/N-hydroxysuccinimide (NHS) chemistry, with ethanolamine blocking, in a running buffer of 0.01 M HEPES pH 7.4, 0.15 M NaCl, 3 mM EDTA, 0.005% v/v tween 20. […] The running buffer for the kinetic experiments was 10 mM sodium phosphate, 130 mM sodium chloride, 0.05% tween 20, pH 7.1. The surfaces were regenerated after each cycle using two 30 s pulses of 10 mM glycine pH 1.5 at a flow rate of 30 μl/min. Sensogram data was double-referenced and then fitted to a 1:1 Langmuir model using Biacore T100 evaluation software v2.0.4, to determine the association rate constant (ka), the dissociation rate constant (kd), and the equilibrium dissociation constant (KD).

Kd	koff	kon	Binder
3.5 nM and 6.5 nM	0.00028 s⁻¹ and 0.00051 s⁻¹	80000 M⁻¹ s⁻¹ and 79000 M⁻¹ s⁻¹	CD73.11-IgG2-C219S (antibody, 4D4 variable regions; also called CD73.11-IgG2CS; mAb-CD73.11-Vh-hHC-IgG2-C219S) heavy: QVQLVESGGGVVQPGRSLRLSCAASGFTFSNYGMHWVRQAPGKGLEWVAVIWYDESNKYYADSVKGRFTISRDNSKNTLFLQMNSLRAEDTAVYYCARGYNSRWYPDAFDIWGQGTMVTVSSASTKGPSVFPLAPCSRSTSESTAALGCLVKDYFPEPVTVSWNSGALTSGVHTFPAVLQSSGLYSLSSVVTVPSSNFGTQTYTCNVDHKPSNTKVDKTVERKSCVECPPCPAPPVAGPSVFLFPPKPKDTLMISRTPEVTCVVVDVSHEDPEVQFNWYVDGVEVHNAKTKPREEQFNSTFRVVSVLTVVHQDWLNGKEYKCKVSNKGLPAPIEKTISKTKGQPREPQVYTLPPSREEMTKNQVSLTCLVKGFYPSDIAVEWESNGQPENNYKTTPPMLDSDGSFFLYSKLTVDKSRWQQGNVFSCSVMHEALHNHYTQKSLSLSPG light: not shown
0.72 nM	0.00022 s⁻¹	300000 M⁻¹ s⁻¹	CD73.6-IgG2-C219S-IgG1.1f (antibody, also called CD73.6-IgG2CS IgG1.1f) heavy: QVQLVESGGGVVQPGRSLRLSCAASGFTFSNYGMHWVRQAPGKGLEWVAVILYDSSNKYYPDSVKGRFTISRDNSKNTLYLQMNSLRAEDTAVYYCARGGSSWYPDSFDIWGQGTMVTVSSASTKGPSVFPLAPCSRSTSESTAALGCLVKDYFPEPVTVSWNSGALTSGVHTFPAVLQSSGLYSLSSVVTVPSSNFGTQTYTCNVDHKPSNTKVDKTVERKSCVECPPCPAPPVAGPSVFLFPPKPKDTLMISRTPEVTCVVVDVSHEDPEVKFNWYVDGVEVHNAKTKPREEQYNSTYRVVSVLTVLHQDWLNGKEYKCKVSNKALPSSIEKTISKAKGQPREPQVYTLPPSREEMTKNQVSLTCLVKGFYPSDIAVEWESNGQPENNYKTTPPVLDSDGSFFLYSKLTVDKSRWQQGNVFSCSVMHEALHNHYTQKSLSLSPGK light: not shown
